Read-outs that look alike come from different tables or passages of the source. No end group written: not given here.
Experiments:
[1] = target: T1, myc-tagged wild-type human MAS receptor (human) (UniProt P04201)
T1 sequence: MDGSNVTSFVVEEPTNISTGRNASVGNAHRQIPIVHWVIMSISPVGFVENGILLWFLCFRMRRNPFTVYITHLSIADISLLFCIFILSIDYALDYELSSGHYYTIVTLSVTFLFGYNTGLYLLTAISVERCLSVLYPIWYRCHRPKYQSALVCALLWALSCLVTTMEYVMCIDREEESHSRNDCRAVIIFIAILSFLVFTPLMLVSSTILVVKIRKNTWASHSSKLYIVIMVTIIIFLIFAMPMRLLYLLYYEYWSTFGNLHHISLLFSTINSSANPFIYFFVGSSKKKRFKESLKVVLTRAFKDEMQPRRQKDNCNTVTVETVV

[2] = target: T2, MAS (Homo sapiens, UniProt P04201); parameters: method as in ref [10,11] (a number printed in a supplementary file, which may have a reference list of its own: not looked up in the article's list); settings: ref [10,11], read-out: EC50 (Calcium assay); cited from earlier work
T2 construct: expressed in transfected cells
T2 sequence (P04201 1-325): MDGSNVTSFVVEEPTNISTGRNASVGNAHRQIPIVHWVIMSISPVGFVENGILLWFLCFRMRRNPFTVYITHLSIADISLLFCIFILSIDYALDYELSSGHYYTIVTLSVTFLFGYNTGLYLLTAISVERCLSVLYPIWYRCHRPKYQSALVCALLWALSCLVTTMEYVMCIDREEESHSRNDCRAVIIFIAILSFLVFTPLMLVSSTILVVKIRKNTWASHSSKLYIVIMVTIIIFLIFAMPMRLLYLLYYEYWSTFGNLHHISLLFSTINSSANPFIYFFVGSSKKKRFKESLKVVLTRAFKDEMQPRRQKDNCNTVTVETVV

[3] = target: T2, MAS; experiment: FLIPR calcium assay, induced myc-tagged WT MAS HEK293 stable cell line; format: cell-based; settings: WT MAS
Experimental: The assay was performed using FLIPR Calcium 5 assay kit (Molecular Devices, Sunnyvale, CA). For calcium measurements, cells at a density of 125,000 cells/well in 100 µl medium were seeded onto a 96-well clear bottom black cell culture plate that was pre-coated with poly-L-lysine. In the calcium assays the cell density of 125,000 cells/well was consistently maintained to minimize variability between independent experiments. The cells were seeded in induction media to induce MAS expression or in complete media for negative controls. The plate was maintained in a cell culture incubator for 26–28 h. The cells were then serum starved for 2 h by replacing the medium with 100 µl of serum free DMEM. In the case of pre-treatment with pan-inhibitor of G protein signaling, BIM-46187, the cells were initially serum starved for 1 h by replacing the medium with 50 µl of serum free DMEM. After 1 h, 50 µl of BIM-46187 was added to the cells to a final concentration of 25 µM and treated for another 1 h. Following serum starvation, 100 µl of calcium sensitive dye along with 2x (2.5 mM final concentration) probenecid (Life Technologies, Grand Island, NY) was added to the cells. During this step, AR-inverse agonist or BIM-46187 was also added at desired concentrations to the calcium dye preparation in case of experiments where cells were pre-treated with these inhibitors. The cells were maintained for one hour in the cell culture incubator. Following this, the 96-well plate containing cells loaded with calcium dye and a U-bottom 96-well plate containing ligands at 5x the desired final concentration in D-PBS (1.47 mM KH2PO4, 138 mM NaCl, 2.67 mM KCl, 8.1 mM Na2HPO4, pH 7.3) were allowed to equilibrate for 15 min on a FlexStation 3 instrument (Molecular Devices, Sunnyvale, CA) at 37°C. The plates were further equilibrated on the instrument for 5 min with the lids removed from the plates. The instrument was programmed in FLEX mode to add ligands (50 µl at 5x concentration) to the cells and to monitor the fluorescence before and after adding the ligands. In re-stimulation and antagonism assays the instrument is programmed to add 35 µl of first ligand followed by addition of the second ligand (35 µl) after 10 min. […] Therefore, when using 5x ligand stock the maximum AR-agonist concentration that could be tested was 10 µM.
In the calcium assays, the maximum response and minimum response values in relative fluorescence units (RFU) were extracted by subtracting the corresponding baseline value wherein baseline is defined as the average fluorescence of all time points before addition of ligand.
The kinetic parameter t1/2 (time taken to reach half of the maximum response) was determined using SoftMax Pro software supplied with the FlexStation 3 instrument (Molecular Devices, Sunnyvale, CA).
For re-stimulation assays, the data is expressed as the percentage of maximum agonist stimulation to allow for ready comparison between individual experiments. […] For all the assays, the EC50 and IC50 values were estimated by fitting the data to a three parameter dose response using GraphPad Prism software (GraphPad, La Jolla, CA).

[4] = system: MAS; settings: Mouse MAS; ref [6]; cited from earlier work
[5] = target: T1, myc-tagged wild-type human MAS receptor (human); remark: listed apart in the source

NPFF-C (peptide)
EC50, calcium assay, induced WT MAS stable HEK293 cells [1]: 3 µM

P33 / CGEN-857: peptide agonist, sequence SMCHRWSRAVLFPAAHRP
EC50 [2]: 1 µM

P61 / CGEN-856: peptide agonist, sequence FLGYCIYLNRKRRGDPAFKRRLRD
EC50 [2]: 0.57 µM

VYIHP [Ang(3–7)] [listing 1 of 2 here]
EC50, Calcium assay ([3]; induced cells): cbd

VYIHP [Ang(3–7)] [listing 2 of 2 here]
t1/2, Calcium assay ([3]; t1/2 at 1000 µM (1 mM) ligand concentration): 15.0 ± 0.5 s

YLFQPQRF-NH2 [[Y^1]-NPFF]
EC50 ([3]; induced cells): 12.2 ± 2 µM

[^DPro^7]-Ang(1-7)
Remarks: effect on Ang(1-7) response [4]: Inhibits Ang(1-7) response

B1: [Sar^1]-Ang(1–7)-amide (peptide)
peptide: GRVYIHP
HELM: PEPTIDE1{[Sar].R.V.Y.I.H.P.[am]}$$$$V2.0; N-terminus assumed
SMILES: CC[C@H](C)[C@H](NC(=O)[C@H](Cc1ccc(O)cc1)NC(=O)[C@@H](NC(=O)[C@H](CCCNC(=N)N)NC(=O)CNC)C(C)C)C(=O)N[C@@H](Cc1c[nH]cn1)C(=O)N1CCC[C@H]1C(N)=O
EC50, calcium assay, induced WT MAS stable HEK293 cells [5]: 193 µM

RVYIHPF [AngIII]
EC50, calcium assay, induced WT MAS stable HEK293 cells (response incompletely inhibited by AR-inverse agonist; non-specific response in un-induced cells at 1 mM) [5]: 30.7 µM

VYIHPF-NH2 [AngIV-amide]
EC50, calcium assay, induced WT MAS stable HEK293 cells (response incompletely inhibited by AR-inverse agonist; non-specific response in un-induced cells at 1 mM) [5]: 24.4 µM

YLFQPQRF-NH2 [[Y^1]-NPFF]
EC50, calcium assay, induced WT MAS stable HEK293 cells [1]: 12.2 µM

B2: [^DY^1] [^NMeF^3]-NPFF (peptide)
peptide: YLFQPQRF
HELM: PEPTIDE1{[dY].L.[meF].Q.P.Q.R.F.[am]}$$$$V2.0; N-terminus assumed
SMILES: CC(C)C[C@H](NC(=O)[C@H](N)Cc1ccc(O)cc1)C(=O)N(C)[C@@H](Cc1ccccc1)C(=O)N[C@@H](CCC(N)=O)C(=O)N1CCC[C@H]1C(=O)N[C@@H](CCC(N)=O)C(=O)N[C@@H](CCCNC(=N)N)C(=O)N[C@@H](Cc1ccccc1)C(N)=O
EC50, calcium assay, induced WT MAS stable HEK293 cells [1]: 2.4 µM

Reference: article PMC4113456, “Atypical Signaling and Functional Desensitization Response of MAS Receptor to Peptide Ligands” (PLoS ONE, 2014)
